The numbers were not newly measured in patent US20250312434A1, “LIPOPOLYSACCHARIDE (LPS) DEFICIENT ACINETOBACTER BAUMANNII M[…]” (VAXDYN S.L., priority 2021, published 2025), which cites them from elsewhere.

For data set [1], the system named is P. aeruginosa. Conditions: 4 intraperitoneal doses of 50 μg.
Data set [2] deals with P. aeruginosa strain PAO1. The conditions noted are these: Balb/c female mice, 4 subcutaneous doses of 50ug; intranasal PAO1.
Another data set concerns P. aeruginosa strain PAK. The conditions noted are these: Balb/c female mice, 4 subcutaneous doses of 50ug; intranasal PAK.
Data set [3] has as its system P. aeruginosa. The conditions noted are these: 2 intraperitoneal doses of 10 ug.

As for “purified OprI: P. aeruginosa outer membrane lipoprotein OprI, purified”, in the data set with P. aeruginosa [1], the “LD50 in immunized versus not immunized animals” value is reported as “up to 35 fold”.

B1: rOprF: recombinant full-length OprF from P. aeruginosa expressed in Escherichia coli (protein, UniProt P13794 1-350, looked up)
chain: MKLKNTLGVVIGSLVAASAMNAFAQGQNSVEIEAFGKRYFTDSVRNMKNADLYGGSIGYFLTDDVELALSYGEYHDVRGTYETGNKKVHGNLTSLDAIYHFGTPGVGLRPYVSAGLAHQNITNINSDSQGRQQMTMANIGAGLKYYFTENFFAKASLDGQYGLEKRDNGHQGEWMAGLGVGFNFGGSKAAPAPEPVADVCSDSDNDGVCDNVDKCPDTPANVTVDANGCPAVAEVVRVQLDVKFDFDKSKVKENSYADIKNLADFMKQYPSTSTTVEGHTDSVGTDAYNQKLSERRANAVRDVLVNEYGVEGGRVNAVGYGESRPVADNATAEGRAINRRVEAEVEAEAK
modifications: full-length
notes: recombinant full-length OprF from P. aeruginosa expressed in Escherichia coli
As to B1, the “survival at 7 days” value in data set [2] is on record as 50%; with P. aeruginosa strain PAK, 60%.

B2: purified OprF: purified OprF from P. aeruginosa PAO1 (protein, UniProt P13794 25-350, looked up)
Outer membrane porin F: QGQNSVEIEAFGKRYFTDSVRNMKNADLYGGSIGYFLTDDVELALSYGEYHDVRGTYETGNKKVHGNLTSLDAIYHFGTPGVGLRPYVSAGLAHQNITNINSDSQGRQQMTMANIGAGLKYYFTENFFAKASLDGQYGLEKRDNGHQGEWMAGLGVGFNFGGSKAAPAPEPVADVCSDSDNDGVCDNVDKCPDTPANVTVDANGCPAVAEVVRVQLDVKFDFDKSKVKENSYADIKNLADFMKQYPSTSTTVEGHTDSVGTDAYNQKLSERRANAVRDVLVNEYGVEGGRVNAVGYGESRPVADNATAEGRAINRRVEAEVEAEAK
Turning to B2, the protection entry in the data set with P. aeruginosa [3] is listed as “up to 67%”.
